From patent US20060257938A1, “Method of screening for drugs that block ligand binding to a lipid binding protein” (priority 2005, published 2006)
Changes are numbered by the printed parent chain. Names and notes keep the numbering of the source.

B1: L78F, L72A: FABP probe clone, substitutions L78F, L72A vs SEQ ID NO: 2 (protein, listed as Rattus norvegicus)
chain: AFDGTWKVDRNENYEKFMEKMGINVVKRKLGAHDNLKLTITQEGNKFTVKESSNFRNIDVVFELGVDFAYSAADGTEFTGTWTMEGNKLVGKFKRVDNGKELIAVREISGNELIQTYTYEGVEAKRIFKKE
modifications: PEPTIDE (1)...(131) wild-type rat intestinal fatty acid binding protein
B2: R106W, L72A: FABP probe clone, substitutions R106W, L72A vs SEQ ID NO: 2 (protein, listed as Rattus norvegicus)
chain: B1 chain with F78L, R106W
modifications: PEPTIDE (1)...(131) wild-type rat intestinal fatty acid binding protein
B3: Y117A, L72A: FABP probe clone, substitutions Y117A, L72A vs SEQ ID NO: 2 (protein, listed as Rattus norvegicus)
chain: B1 chain with F78L, Y117A
modifications: PEPTIDE (1)...(131) wild-type rat intestinal fatty acid binding protein
B4: L72M: FABP probe clone, substitution L72M vs SEQ ID NO: 2 (protein, listed as Rattus norvegicus)
chain: B1 chain with A72M, F78L
modifications: PEPTIDE (1)...(131) wild-type rat intestinal fatty acid binding protein
B5: Y117S, L72A: FABP probe clone, substitutions Y117S, L72A vs SEQ ID NO: 2 (protein, listed as Rattus norvegicus)
chain: B1 chain with F78L, Y117S
modifications: PEPTIDE (1)...(131) wild-type rat intestinal fatty acid binding protein
B6: L72G: FABP probe clone, substitution L72G vs SEQ ID NO: 2 (protein, listed as Rattus norvegicus)
chain: B1 chain with A72G, F78L
modifications: PEPTIDE (1)...(131) wild-type rat intestinal fatty acid binding protein
B7: W82F, L72A: FABP probe clone, substitutions W82F, L72A vs SEQ ID NO: 2 (protein, listed as Rattus norvegicus)
chain: B1 chain with F78L, W82F
modifications: PEPTIDE (1)...(131) wild-type rat intestinal fatty acid binding protein
B8: A73F, L72A: FABP probe clone, substitutions A73F, L72A vs SEQ ID NO: 2 (protein, listed as Rattus norvegicus)
chain: B1 chain with A73F, F78L
modifications: PEPTIDE (1)...(131) wild-type rat intestinal fatty acid binding protein
B9: L72A: FABP probe clone, substitution L72A vs SEQ ID NO: 2 (protein of ADIFAB2) (protein, listed as Rattus norvegicus)
chain: B1 chain with F78L
modifications: PEPTIDE (1)...(131) wild-type rat intestinal fatty acid binding protein
B10: L1P12G10: FABP probe, substitution Y14I vs SEQ ID NO: 2 (protein, listed as Rattus norvegicus)
chain: B1 chain with Y14I, A72L, F78L
modifications: PEPTIDE (1)...(131) wild-type rat intestinal fatty acid binding protein
B11: L1P14A9: FABP probe, substitutions Y14L L72G Y117I vs SEQ ID NO: 2 (protein, listed as Rattus norvegicus)
chain: B1 chain with Y14L, A72G, F78L, Y117I
modifications: PEPTIDE (1)...(131) wild-type rat intestinal fatty acid binding protein
B12: L1P11F12: FABP probe, substitutions Y14L L38I vs SEQ ID NO: 2 (protein, listed as Rattus norvegicus)
chain: B1 chain with Y14L, L38I, A72L, F78L
modifications: PEPTIDE (1)...(131) wild-type rat intestinal fatty acid binding protein
B13: L1P3D6: FABP probe, substitution Y14L vs SEQ ID NO: 2 (protein, listed as Rattus norvegicus)
chain: B1 chain with Y14L, A72L, F78L
modifications: PEPTIDE (1)...(131) wild-type rat intestinal fatty acid binding protein
B14: L1P7B11: FABP probe, substitutions Y14I L38I L72V vs SEQ ID NO: 2 (protein, listed as Rattus norvegicus)
chain: B1 chain with Y14I, L38I, A72V, F78L
modifications: PEPTIDE (1)...(131) wild-type rat intestinal fatty acid binding protein
B15: L1P1F7: FABP probe, substitutions Y14L L38M Y117F vs SEQ ID NO: 2 (protein, listed as Rattus norvegicus)
chain: B1 chain with Y14L, L38M, A72L, F78L, Y117F
modifications: PEPTIDE (1)...(131) wild-type rat intestinal fatty acid binding protein
B16: L1P12F12: FABP probe, substitutions Y14L L72G Y117V vs SEQ ID NO: 2 (protein, listed as Rattus norvegicus)
chain: B1 chain with Y14L, A72G, F78L, Y117V
modifications: PEPTIDE (1)...(131) wild-type rat intestinal fatty acid binding protein
B17: L1P2F7: FABP probe, substitutions Y14I L72G Y117V vs SEQ ID NO: 2 (protein, listed as Rattus norvegicus)
chain: B1 chain with Y14I, A72G, F78L, Y117V
modifications: PEPTIDE (1)...(131) wild-type rat intestinal fatty acid binding protein
B18: L1P17A8: FABP probe, substitutions L38M L72G Y117F vs SEQ ID NO: 2 (protein, listed as Rattus norvegicus)
chain: B1 chain with L38M, A72G, F78L, Y117F
modifications: PEPTIDE (1)...(131) wild-type rat intestinal fatty acid binding protein
B19: L1P12E11: FABP probe, substitutions Y14L L72W vs SEQ ID NO: 2 (protein, listed as Rattus norvegicus)
chain: B1 chain with Y14L, A72W, F78L
modifications: PEPTIDE (1)...(131) wild-type rat intestinal fatty acid binding protein

Test: Probe fluorescence ratio response to linolenic acid relative to ADIFAB2
Assay type: binding
Details: Table 3
Outline: (§1)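 Fluorescently labeled rat intestinal FABP variants were read at two emission wavelengths, near the unbound maximum (about 420 to 480 nm) and the FFA-bound maximum (about 495 to 580 nm). R = Fλ1/Fλ2 after subtracting probe-free intensity; ΔR = R+agent − R0, normalized to ADIFAB2 (rI-FABP-L72A).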
For B1, the “DR/DRAD2 LNA” value was 2.05.
With B2 the “DR/DRAD2 LNA” value was 1.03.
With B3 the “DR/DRAD2 LNA” value was 0.62.
With B4 the “DR/DRAD2 LNA” value was 1.35.
With B5 the “DR/DRAD2 LNA” value was 1.07.
In the case of B6, the “DR/DRAD2 LNA” value is reported as 0.48.
With B7 the “DR/DRAD2 LNA” value was 0.76.
With B8 the “DR/DRAD2 LNA” value was 1.86.
For B9, the “DR/DRAD2 LNA” value was 1.16.

Same assay, conditions: Table 4
For B10, the “ΔR/DRAΔ2 LNA” value was 1.0.
For B11, the “ΔR/DRAΔ2 LNA” value was 0.8.
With B12 the “ΔR/DRAΔ2 LNA” value was 1.2.
In the case of B13, the “ΔR/DRAΔ2 LNA” value is reported as 0.9.
In the case of B14, the “ΔR/DRAΔ2 LNA” value is reported as 0.9.
In the case of B15, the “ΔR/DRAΔ2 LNA” value is reported as 1.0.
For B16, the “ΔR/DRAΔ2 LNA” value was 0.5.
With B17 the “ΔR/DRAΔ2 LNA” value was 0.5.
In the case of B18, the “ΔR/DRAΔ2 LNA” value is reported as 0.7.
For B19, the “ΔR/DRAΔ2 LNA” value was −0.7.

Test: Probe fluorescence ratio response to arachidonic acid relative to ADIFAB2
Assay type: binding
Details: Table 3; Arachidonic acid
Outline: as §1
For B1, the “DR/DRAD2 AA” value was 2.04.
In the case of B2, the “DR/DRAD2 AA” value is reported as 1.11.
In the case of B3, the “DR/DRAD2 AA” value is reported as 1.27.
In the case of B4, the “DR/DRAD2 AA” value is reported as 1.31.
For B5, the “DR/DRAD2 AA” value was 1.35.
For B6, the “DR/DRAD2 AA” value was 0.62.
With B7 the “DR/DRAD2 AA” value was 0.68.
With B8 the “DR/DRAD2 AA” value was 1.21.
With B9 the “DR/DRAD2 AA” value was 1.12.

Same assay, conditions: Table 4; Arachidonic acid
With B10 the “ΔR/DRAΔ2 AA” value was 0.8.
With B11 the “ΔR/DRAΔ2 AA” value was 0.8.
With B12 the “ΔR/DRAΔ2 AA” value was 1.0.
With B13 the “ΔR/DRAΔ2 AA” value was 0.9.
For B14, the “ΔR/DRAΔ2 AA” value was 0.7.
For B15, the “ΔR/DRAΔ2 AA” value was 0.9.
In the case of B16, the “ΔR/DRAΔ2 AA” value is reported as 0.9.
In the case of B17, the “ΔR/DRAΔ2 AA” value is reported as 0.9.
For B18, the “ΔR/DRAΔ2 AA” value was 1.3.
For B19, the “ΔR/DRAΔ2 AA” value was −0.5.

Test: Probe fluorescence ratio response to oleic acid relative to ADIFAB2
Assay type: binding
Details: Table 3
Outline: as §1
In the case of B1, the “DR/DRAD2 OA” value is reported as 1.83.
In the case of B2, the “DR/DRAD2 OA” value is reported as 0.99.
With B3 the “DR/DRAD2 OA” value was 0.93.
For B4, the “DR/DRAD2 OA” value was 1.49.
With B5 the “DR/DRAD2 OA” value was 1.19.
In the case of B6, the “DR/DRAD2 OA” value is reported as 0.52.
In the case of B7, the “DR/DRAD2 OA” value is reported as 0.78.
In the case of B8, the “DR/DRAD2 OA” value is reported as 0.73.
In the case of B9, the “DR/DRAD2 OA” value is reported as 1.15.

Same assay, conditions: Table 4
With B10 the “ΔR/DRAΔ2 OA” value was 0.5.
With B11 the “ΔR/DRAΔ2 OA” value was 0.4.
For B12, the “ΔR/DRAΔ2 OA” value was 0.7.
In the case of B13, the “ΔR/DRAΔ2 OA” value is reported as 0.5.
For B14, the “ΔR/DRAΔ2 OA” value was 0.4.
For B15, the “ΔR/DRAΔ2 OA” value was 0.5.
With B16 the “ΔR/DRAΔ2 OA” value was 0.3.
With B17 the “ΔR/DRAΔ2 OA” value was 0.3.
For B18, the “ΔR/DRAΔ2 OA” value was 0.7.
For B19, the “ΔR/DRAΔ2 OA” value was −1.0.

Test: Probe fluorescence ratio response to linoleic acid relative to ADIFAB2
Assay type: binding
Details: Table 3
Outline: as §1
For B1, the “DR/DRAD2 LA” value was 2.
With B2 the “DR/DRAD2 LA” value was 1.04.
For B3, the “DR/DRAD2 LA” value was 1.01.
With B4 the “DR/DRAD2 LA” value was 1.46.
With B5 the “DR/DRAD2 LA” value was 1.42.
For B6, the “DR/DRAD2 LA” value was 0.48.
In the case of B7, the “DR/DRAD2 LA” value is reported as 1.08.
For B8, the “DR/DRAD2 LA” value was 1.23.
With B9 the “DR/DRAD2 LA” value was 1.14.

Same assay, conditions: Table 4
For B10, the “ΔR/DRAΔ2 LA” value was 0.9.
For B11, the “ΔR/DRAΔ2 LA” value was 0.8.
In the case of B12, the “ΔR/DRAΔ2 LA” value is reported as 1.1.
With B13 the “ΔR/DRAΔ2 LA” value was 0.8.
In the case of B14, the “ΔR/DRAΔ2 LA” value is reported as 0.9.
For B15, the “ΔR/DRAΔ2 LA” value was 0.9.
In the case of B16, the “ΔR/DRAΔ2 LA” value is reported as 0.5.
In the case of B17, the “ΔR/DRAΔ2 LA” value is reported as 0.6.
For B18, the “ΔR/DRAΔ2 LA” value was 0.8.
In the case of B19, the “ΔR/DRAΔ2 LA” value is reported as −0.7.

Test: Probe fluorescence ratio response to palmitic acid relative to ADIFAB2
Assay type: binding
Details: Table 3
Outline: as §1
For B1, the “DR/DRAD2 PA” value was 0.91.
For B2, the “DR/DRAD2 PA” value was 0.41.
In the case of B3, the “DR/DRAD2 PA” value is reported as 0.32.
For B4, the “DR/DRAD2 PA” value was 1.32.
With B5 the “DR/DRAD2 PA” value was 0.55.
For B6, the “DR/DRAD2 PA” value was 0.26.
For B7, the “DR/DRAD2 PA” value was 0.41.
In the case of B8, the “DR/DRAD2 PA” value is reported as 1.13.
With B9 the “DR/DRAD2 PA” value was 1.02.

Same assay, conditions: Table 4
For B10, the “ΔR/DRAΔ2 PA” value was 0.8.
With B11 the “ΔR/DRAΔ2 PA” value was 0.2.
With B12 the “ΔR/DRAΔ2 PA” value was 0.7.
In the case of B13, the “ΔR/DRAΔ2 PA” value is reported as 0.5.
For B14, the “ΔR/DRAΔ2 PA” value was 0.8.
With B15 the “ΔR/DRAΔ2 PA” value was 0.5.
For B16, the “ΔR/DRAΔ2 PA” value was 0.1.
With B17 the “ΔR/DRAΔ2 PA” value was 0.1.
With B18 the “ΔR/DRAΔ2 PA” value was 0.4.
With B19 the “ΔR/DRAΔ2 PA” value was −0.1.
